Test results taken from US20170002074A1 (Genentech, published 2017).
Positions count from the first letter of the chain named.

B1: 7A1 (antibody, V domains shown)
VH: QVQLVQSGAEVKKPGSSVKVSCKASGGTFTSYAVSWVRQAPGQGLEWMGGIIPIFGTADYAQKFQGRVTITADESTSTAYMELSSLRSEDTAVYYCARELADVFDIWGQGTMVTVSS
VL: not shown
B2: 10D3 (antibody, V domains shown)
VH: EVQLVESGAEVKKPGSSVKVSCKASGGTLISHAISWVRQVPGQGLEWMGGIIPIFGSANYAQKFQGRVTITADDSTNTAYLELSSLRSEDTAVYYCARELLDVFDIWGQGTMVTVSS
VL: not shown
B3: 9C2 (antibody, V domains shown)
VH: B1 VH with G27D, T30S, A33S, V34I, G50E, E74I, S77T, E99T, L100W, V103A
VL: not shown
B4: 33H4 (antibody, V domains shown)
VH: EVQLQQSGAELVKPGASVKMSCKAFGYTFTTFPIEWMKQSHGKSLEWIGNFHPYNDQTKYNEEFKGRAKLTIDRSSSTVYLELGRLTSDDSAVYYCARGYYYAFDFWGQGTTLTVSS
VL: DIQMTQSPASLTVSLGQRATISCRASESVDSYGNSYLHWYQQKPGQPPQLLIYLASNLESGVPARFSGSGSRTDFTLTIDPVEADDAATYYCQQNNEDPWTFGGGTKVEIK
B5: 15G15.33 (antibody, V domains shown)
VH: B1 VH with T28I, T30S, S31N, Y32H, V34I, D59N, Y80F, L100W
VL: EIVLTQSPLSLPVTPGEPASISCRSSQSLLHSNGYNYLDWYLQKPGQSPQLLIYLGVNSVSGVPDRFSGSGSGTDFTLKISRVEAEDVGVYYCMQALQTPWTFGQGTKVEIK
notes: Variant of 15G15
B6: 15G15.83 (antibody, V domains shown)
VH: B1 VH with T28I, T30S, S31N, Y32H, V34I, D59N, Y80F, L100W
VL: B5 VL with V57A, N58Y, S59T
notes: Variant of 15G15
B7: 15G15.88 (antibody, V domains shown)
VH: B1 VH with T28I, T30S, S31N, Y32H, V34I, D59N, Y80F, L100W
VL: B5 VL with V57N, N58Y, S59R
notes: Variant of 15G15
B8: 33F9 (antibody, V domains shown)
VH: EVQLQQSGPELVKPGASVKMSCKASGYTFTSYVMHWMKQKPGQGLEWIGYINPYNDGTKYNDKFKGKATLTSDKSSSTAYMELSSLTSEDSAVYYCARGSNYEDFAMDYRGQGTSVTVSS
VL: DIVMTQSPASQSASLGESVTITCLASQTIGTWLAWYQQKPGKSPQLLIYAATTLADGVPSRFSGSGSGTKFSFKISSLQAEDFVSYYCQQLYSTPLTFGGGTKVEIK
B9: 9C3 (antibody, V domains shown)
VH: EVQLVESGGALIQPGGSLRLSCVASGFTISGNYMSWVRQAPGKGLEWVSLIYSGDSTYYADSVKGRFNISRDISKNTVYLQMNSLRVEDTAVYYCVRDGYYVSDMVVWGKGTTVTVSS
VL: DIQMTQSPSSLSASVGDRVTITCRASQGIRNDLGWYQQKPGKAPKRLIYAASSLQSGVPSRFSGSGSGTEFTLTISSLQPEDFATYYCLQHNSYPWTFGQGTKLEIK
modifications: atypical N-linked glycosylation site in the heavy chain between CDR2 and CDR3 at position 69 (kabat #)
B10: 27C6 (antibody, V domains shown)
VH: EVQLQQSGPELVKPGASVKVSCKASGYAFTSYNMYWVKQSHGKSLEWIGYIDPYNGGTRHNQKFKDKATLTVDKSSSTAYMHLNSLTSEDSAVYYCASQNYEYFDYWGQGTTLTVSS
VL: DIVLTQSPKFMSTSVGDRVSITCKASQDVGDAVAWYQQKPGQSPKLLFYWTSTRHTGVPDRFTGSGSGTEFTLTIRNVQSEDLADYFCQQYRSTPLTFGSGTKVEIK
B11: 15G15 (antibody, V domains shown)
VH: B1 VH with T28I, T30S, S31N, Y32H, V34I, D59N, Y80F, L100W
VL: not shown
B12: 23E4 (antibody, V domains shown)
VH: EVQLQQSGAELVRPGASVKLSCKASGYTFTNYWMNWVKQRPGQGLEWIGMIDPSDNETHYSQMFKDKATLTVDKSSSTAYMQLISLTSEDSAVYYCAGYYGNFGWFVYWGQGTLVTVSA
VL: DIFMTQTPLSLPVSLGDPASISCRSSQTIVHSNGNTYLEWYLQKPGQSPKLLIYKVSNRFSGVPDRFSGSGSGTDFTLKISRVEAEDLGVYYCFQGSHVPPTFGGGTKVEIK
B13: 9C3.3 (antibody, V domains shown)
VH: B9 VH with N68S
VL: B9 VL
notes: Variant of 9C3 with the heavy chain N-glycosylation site removed
B14: 9C3.4 (antibody, V domains shown)
VH: B9 VH with N68A
VL: B9 VL
notes: as for B13
B15: 9C3.2 (antibody, V domains shown)
VH: B9 VH with N68T
VL: B9 VL
notes: as for B13

The binders below were run against T1, Construct-88B: CD33 Ig-like V (M17-V136 including spacer H137-H143) linked to an irrelevant Ig-like C … (human) (assay: FACS on 293 cells transiently transfected with construct 88B, Dylight-650 labelled antibody at 1-10 µg/ml).
T1 construct: also called Ig-like V domain of huCD33

Geom. Mean:FL4-H	Binder
772	B1
684	B2
366	B3

Each binder was assayed against T1, Construct-88B: CD33 Ig-like V (M17-V136 …) (assay: FACS, Dylight-650 labeled antibody (1-10 ug/ml) on 293 cells transiently transfected with construct 88B).

fold binding over isotype control [fold]	Binder
≥ 100	B2
≥ 100	B3

These binders were tested against T2, Human CD33 (human, UniProt P20138 18-364) (assay: Scatchard analysis, [125I]-labeled antibody competed by unlabeled antibody, HEK293AD cells stably expressing human CD33).
T2 construct: One molecule is used for recombinant CD33 on HEK293AD/293 cells and for endogenous human CD33 on tumor or myeloid cells; the cell is named under assay; also called huCD33; hu CD33

Kd [nM]	Binder
2.4	B4
0.7	B5
0.5	B6
0.7	B7
3.3	B2
8.7	B8
0.8	B9
13.4	B10
6.5	B3

These binders were tested against T3, huCD33 R69G variant (human, UniProt P20138 18-364) (assay: FACS, direct Dylight 488 conjugate, on 293AD cells labelled 'SNPG69R', taken as the SNP variant of paragraph 650).
T3 construct: also called G69 CD33; SNP R69G (r2455069)

Geom. Mean:FL1-H	Binder
123	B11
125	B1
103	B2
71.7	B3

The binders below were run against T4, Cynomolgus monkey CD33 (cynomolgus monkey) (assay: FACS, HEK293AD cells stably expressing cynomolgus CD33).
T4 construct: Used for recombinant CD33 on HEK293AD cells and endogenous CD33 on cynomolgus CD14+/CD33+ myeloid cells; also called cynoCD33; cyno CD33

binding result	Binder
no binding (tested: 1 mg/ml)	B12

These binders were tested against T5, Construct-88: irrelevant Ig-like V linked to a CD33 Ig-like C (R144-Q228 including TM/CD L229) (human) (assay: FACS on 293 cells transiently transfected with construct 88, Dylight-650 labelled antibody at 1-10 µg/ml).
T5 construct: N-terminal or cytoplasmic tags were attached

Geom. Mean:FL4-H	Binder
13	B1
12.1	B2
11.2	B3

These binders were tested against T2, Human CD33 (assay: FACS titration on EOL-1 cells (endogenous huCD33), geometric mean fluorescence, 0.1-10 µg/ml antibody).

EC50 [µg/mL]	Binder
0.54	B9
0.42	B13
0.23	B14
0.46	B15

These binders were tested against T4, Cynomolgus monkey CD33 (assay: Scatchard analysis, [125I]-labeled antibody competed by unlabeled antibody, HEK293AD cells stably expressing cynomolgus CD33).

Kd [nM]	Binder
0.54	B1
0.3	B5
0.2	B6
0.2	B7
0.7	B2
0.92	B8
0.6	B9
4.5	B10
0.7	B3

Target: T3, huCD33 R69G variant
Assay: FACS, direct Dylight 488 conjugate, on 293AD cells labelled 'SNPG69R', taken as the SNP variant of paragraph 650
Remark: another data set of the same source

Geom. Mean:FL1-H	Binder
78.7	B4
50.1	B12
85.2	B8
32.3	B10

What follows are binders tested against T2, Human CD33 (assay: Scatchard analysis, [125I]-labeled antibody competed by unlabeled antibody, Molm-13 cells (endogenous CD33)).

Kd [nM]	Binder
0.6	B4
0.9	B5
0.5	B6
0.8	B7
2.6	B2
~9.2	B8
5.8	B9
2.2	B13
2.7	B14
2	B15
23	B10
10.3	B3

Each binder was assayed against T4, Cynomolgus monkey CD33 (assay: Scatchard analysis, HEK293AD cells stably expressing cynomolgus CD33; Scatchard analysis on 293-cynCD33 cells).

binding result	Binder
no binding	B4
